According to patent publication US20040002144:
Residue numbers refer to the chain shown, from its start. Numbers in names are those of the source. Entries after “also recorded” stand apart in the source; their conditions may differ.

B1: del 1-3 mutant MTG (residue Nos. 1 to 3 removed) (protein)
chain: DRVTPPAEPLDRMPDPYRPSYGRAETVVNNYIRKWQQVYSHRDGRKQQMTEEQREWLSYGCVGVTWVNSGQYPTNRLAFASFDEDRFKNELKNGRPRSGETRAEFEGRVAKESFDEEKGFQRAREVASVMNRALENAHDESAYLDNLKKELANGNDALRNEDARSPFYSALRNTPSFKERNGGNHDPSRMKAVIYSKHFWSGQDRSSSADKRKYGDPDAFRPAPGTGLVDMSRDRNIPRSPTSPGEGFVNFDYGWFGAQTEADADKTVWTHGNHYHAPNGSLGAMHVYESKFRNWSEGYSDFDRGAYVITFIPKSWNTAPDKVKQGWP
B2: transglutaminase derived from Streptoverticillium mobaraense (MTG), wild type (protein)
chain: DSDDRVTPPAEPLDRMPDPYRPSYGRAETVVNNYIRKWQQVYSHRDGRKQQMTEEQREWLSYGCVGVTWVNSGQYPTNRLAFASFDEDRFKNELKNGRPRSGETRAEFEGRVAKESFDEEKGFQRAREVASVMNRALENAHDESAYLDNLKKELANGNDALRNEDARSPFYSALRNTPSFKERNGGNHDPSRMKAVIYSKHFWSGQDRSSSADKRKYGDPDAFRPAPGTGLVDMSRDRNIPRSPTSPGEGFVNFDYGWFGAQTEADADKTVWTHGNHYHAPNGSLGAMHVYESKFRNWSEGYSDFDRGAYVITFIPKSWNTAPDKVKQGWP
B3: Sg4 mutant MTG (residue Nos. 241 to 252 replaced with 3 glycine residues) (protein)
chain: DSDDRVTPPAEPLDRMPDPYRPSYGRAETVVNNYIRKWQQVYSHRDGRKQQMTEEQREWLSYGCVGVTWVNSGQYPTNRLAFASFDEDRFKNELKNGRPRSGETRAEFEGRVAKESFDEEKGFQRAREVASVMNRALENAHDESAYLDNLKKELANGNDALRNEDARSPFYSALRNTPSFKERNGGNHDPSRMKAVIYSKHFWSGQDRSSSADKRKYGDPDAFRPAPGTGLVDMSRDRNIGGGNFDYGWFGAQTEADADKTVWTHGNHYHAPNGSLGAMHVYESKFRNWSEGYSDFDRGAYVITFIPKSWNTAPDKVKQGWP
B4: Ser-type MTG (mutant in which Asp1 has been removed, starts with Ser2) (protein)
chain: SDDRVTPPAEPLDRMPDPYRPSYGRAETVVNNYIRKWQQVYSHRDGRKQQMTEEQREWLSYGCVGVTWVNSGQYPTNRLAFASFDEDRFKNELKNGRPRSGETRAEFEGRVAKESFDEEKGFQRAREVASVMNRALENAHDESAYLDNLKKELANGNDALRNEDARSPFYSALRNTPSFKERNGGNHDPSRMKAVIYSKHFWSGQDRSSSADKRKYGDPDAFRPAPGTGLVDMSRDRNIPRSPTSPGEGFVNFDYGWFGAQTEADADKTVWTHGNHYHAPNGSLGAMHVYESKFRNWSEGYSDFDRGAYVITFIPKSWNTAPDKVKQGWP
B5: S2Y mutant MTG (Ser2 replaced with Tyr, in Met type MTG) (protein)
chain: MDYDDRVTPPAEPLDRMPDPYRPSYGRAETVVNNYIRKWQQVYSHRDGRKQQMTEEQREWLSYGCVGVTWVNSGQYPTNRLAFASFDEDRFKNELKNGRPRSGETRAEFEGRVAKESFDEEKGFQRAREVASVMNRALENAHDESAYLDNLKKELANGNDALRNEDARSPFYSALRNTPSFKERNGGNHDPSRMKAVIYSKHFWSGQDRSSSADKRKYGDPDAFRPAPGTGLVDMSRDRNIPRSPTSPGEGFVNFDYGWFGAQTEADADKTVWTHGNHYHAPNGSLGAMHVYESKFRNWSEGYSDFDRGAYVITFIPKSWNTAPDKVKQGWP
B6: S2D mutant MTG (Ser2 replaced with Asp, in Met type MTG) (protein)
chain: B5 chain with Y3D
B7: S2R mutant MTG (Ser2 replaced with Arg, in Met type MTG) (protein)
chain: B5 chain with Y3R
B8: del 1-2 mutant MTG (residue Nos. 1 and 2 removed) (protein)
chain: DDRVTPPAEPLDRMPDPYRPSYGRAETVVNNYIRKWQQVYSHRDGRKQQMTEEQREWLSYGCVGVTWVNSGQYPTNRLAFASFDEDRFKNELKNGRPRSGETRAEFEGRVAKESFDEEKGFQRAREVASVMNRALENAHDESAYLDNLKKELANGNDALRNEDARSPFYSALRNTPSFKERNGGNHDPSRMKAVIYSKHFWSGQDRSSSADKRKYGDPDAFRPAPGTGLVDMSRDRNIPRSPTSPGEGFVNFDYGWFGAQTEADADKTVWTHGNHYHAPNGSLGAMHVYESKFRNWSEGYSDFDRGAYVITFIPKSWNTAPDKVKQGWP
B9: Sg7 mutant MTG (residue Nos. 278 to 287 replaced with 3 glycine residues) (protein)
chain: DSDDRVTPPAEPLDRMPDPYRPSYGRAETVVNNYIRKWQQVYSHRDGRKQQMTEEQREWLSYGCVGVTWVNSGQYPTNRLAFASFDEDRFKNELKNGRPRSGETRAEFEGRVAKESFDEEKGFQRAREVASVMNRALENAHDESAYLDNLKKELANGNDALRNEDARSPFYSALRNTPSFKERNGGNHDPSRMKAVIYSKHFWSGQDRSSSADKRKYGDPDAFRPAPGTGLVDMSRDRNIPRSPTSPGEGFVNFDYGWFGAQTEADADKTVWTHGNHGGGMHVYESKFRNWSEGYSDFDRGAYVITFIPKSWNTAPDKVKQGWP

What was measured:
[1] = molecular target: T1, ovalbumin, P01012
T1 chain: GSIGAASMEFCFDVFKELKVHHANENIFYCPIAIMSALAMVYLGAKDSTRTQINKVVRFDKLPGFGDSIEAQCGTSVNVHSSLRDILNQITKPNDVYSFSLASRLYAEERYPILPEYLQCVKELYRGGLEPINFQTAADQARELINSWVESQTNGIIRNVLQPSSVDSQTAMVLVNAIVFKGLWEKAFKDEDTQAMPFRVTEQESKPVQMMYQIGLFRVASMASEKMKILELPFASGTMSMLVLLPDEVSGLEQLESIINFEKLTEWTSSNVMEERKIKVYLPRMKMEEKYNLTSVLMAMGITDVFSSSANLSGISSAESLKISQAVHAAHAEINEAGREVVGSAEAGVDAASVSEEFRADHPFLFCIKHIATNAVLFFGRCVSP

[2] = molecular target: insulin A chain wherein cysteine residue had been oxidized (Sigma)
Sequence of insulin A chain wherein cysteine residue had been oxidized (Sigma) (chain, as listed by the source): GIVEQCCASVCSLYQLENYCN

Row | Protein | 15N-labeling rate of the ovalbumin glutamine residue giving signal "a" [1] | groups of 1H-15N HSQC signals of 15N-labeled ovalbumin glutamine residues after 6 hours [1] | also measured
1 | B1 | – | – | reactivity to the ovalbumin glutamine residue giving signal "a" (1H-15N HSQC peak intensity vs. reaction time) [1]: the reactivity of each of del 1-2 and del 1-3 was improved as compared with that of the wild type; also recorded: the reactivity of del 1-3 was even much higher than that of Ser type or S2R
2 | B2 | the order of the 15N-labeling rate was S2Y<S2D<wild type<S2R | 6 groups of the signals were found when the wild type was used | 15N-labeled residue identified by mass spectrometry [2]: in the two glutamine residues in insulin A chain, the 15th glutamine residue was the substrate of MTG
3 | B3 | – | only 3 groups and 2 groups of the signals were found when Sg4 and Sg7 were used, respectively | –
4 | B4 | – | – | 15N-labeling rate of the ovalbumin glutamine residue giving signal "a" (1H-15N HSQC peak intensity vs. reaction time) [1]: more rapidly 15N-labeled when it was reacted with the Ser-type rather than when reacted with the wild type
5 | B5 | the order of the 15N-labeling rate was S2Y<S2D<wild type<S2R | – | –
6 | B6 | the order of the 15N-labeling rate was S2Y<S2D<wild type<S2R | – | –
7 | B7 | the order of the 15N-labeling rate was S2Y<S2D<wild type<S2R | – | –
8 | B8 | – | – | reactivity to the ovalbumin glutamine residue giving signal "a" (1H-15N HSQC peak intensity vs. reaction time) [1]: the reactivity of each of del 1-2 and del 1-3 was improved as compared with that of the wild type
9 | B9 | – | only 3 groups and 2 groups of the signals were found when Sg4 and Sg7 were used, respectively | –
